From patent US20230220059A1 (CRISPR THERAPEUTICS, published 2023)

Key:
mouse BCMA = biological target: T1, mouse BCMA (mouse, UniProt O88472 1-49, limits assumed); test: not described (statement within Example 5)
T1 construct: also called murine BCMA
T1 chain (looked up): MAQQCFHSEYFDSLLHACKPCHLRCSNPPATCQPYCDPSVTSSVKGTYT

[1] = biological target: T2, biotinylated recombinant human BCMA (Acro Biosystems Cat: #BC7-H82F0) (human, UniProt Q02223 1-54, biotinylated); test: flow cytometry; CTX120 cells stained with biotinylated BCMA and fluorescent streptavidin
T2 construct: Bought reagent; Detected with fluorescent streptavidin
T2 sequence (looked up): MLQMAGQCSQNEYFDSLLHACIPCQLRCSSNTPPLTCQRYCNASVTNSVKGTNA
Description: The resultant genetically engineered T cells were characterized for incorporation of the desired gene edits: loss of TCR, loss of MHC I expression, and expression of an anti-BCMA CAR. Approximately one week after gene-editing, allogeneic T cells were assessed for surface expression of TCR, β2M, and anti-BCMA CAR using flow cytometry. The allogeneic cells were stained with biotinylated recombinant human BCMA (Acro Biosystems Cat: #BC7-H82F0) and tagged with fluorescent streptavidin and with fluorescent antibodies targeting cell surface markers. The percentage of cells that were TCR⁻, β2M⁻, and anti-BCMA CAR⁺ was determined. Nine lots of CTX120 cells were prepared from eight healthy donors.

B1: anti-BCMA CAR (CTX-166b) expressed on CTX120 cells (other)
chain: QVQLVQSGAELKKPGASVKVSCKASGNTLTNYVIHWVRQAPGQRLEWMGYILPYNDLTKYSQKFQGRVTITRDKSASTAYMELSSLRSEDTAVYYCTRWDWDGFFDPWGQGTTVTVSSGGGGSGGGGSGGGGSEIVMTQSPATLSVSPGERASISCRASQSLVHSNGNTHLHWYQQRPGQAPRLLIYSVSNRFSEVPARFSGSGSGTDFTLTISSVESEDFAVYYCSQTSHIPYTFGGGTKLEIKSAAAFVPVFLPAKPTTTPAPRPPTPAPTIASQPLSLRPEACRPAAGGAVHTRGLDFACDIYIWAPLAGTCGVLLLSLVITLYCNHRNRKRGRKKLLYIFKQPFMRPVQTTQEEDGCSCRFPEEEEGGCELRVKFSRSADAPAYQQGQNQLYNELNLGRREEYDVLDKRRGRDPEMGGKPRRKNPQEGLYNELQKDKMAEAYSEIGMKGERRRGKGHDGLYQGLSTATKDTYDALHMQALPPR
notes: TRAC and B2M disrupted; also called CTX120 anti-BCMA CAR
Mouse BCMA
  binding result: no binding
[1]
  binding result: binds
